± gives the standard deviation of the averaged measurements.
tested on: Saccharomyces cerevisiae; experiment: protein stability index of tFT-peptide fusion (C-terminal peptide) (PSI (0-1 scale)); higher = more stable (slower turnover); details: genetic background: wild type; temperature: 30 C
Protocol: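 MPS profiling in S. cerevisiae of the yeast C-terminome library: the last 12 aa of each annotated ORF are fused to the C-terminus of a sfGFP-mCherry timer, after a GGGS linker. Cells are FACS-sorted into 8 mCherry/sfGFP bins and deep-sequenced. PSI runs from 0 (unstable) to 1 (stable); wild type and das1Δ backgrounds, two technical replicates each.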

| Sequence | protein stability index |
| --- | --- |
| TGWPTGLRHQHT [YER133W-A C-terminal 12 aa] | 0.695 ± 0.011 |
| TKKLLRDYFSQF [SMN1 C-terminal 12 aa] | 0.188 ± 0.014 |
| TKMFPAHSHVLW [THP1 C-terminal 12 aa] | 0.72 ± 0.014 |
| TLGLLCLIFGLP [YOR277C C-terminal 12 aa] | 0.499 ± 0.018 |
| TLLNAQKEALKK [APT1 C-terminal 12 aa] | 0.684 ± 0.03 |
| TLSKEPFLVFSF [YDL185C-A C-terminal 12 aa] | 0.494 ± 0.025 |
| TMSLLKRNPRNH [TRM44 C-terminal 12 aa] | 0.683 ± 0.032 |
| TNEWCLFTPDSP [MLH2 C-terminal 12 aa] | 0.7355 ± 0.005 |
| TNMSSVSAFISR [PTK2 C-terminal 12 aa] | 0.713 ± 0.013 |
| TNQPVNENNDLK [SNF3 C-terminal 12 aa] | 0.629 ± 0.0078 |
| TPHNHNQNQHTN [RSF1 C-terminal 12 aa] | 0.706 ± 0.03 |
| TPSSVQSSPKRA [ZRG8 C-terminal 12 aa] | 0.668 ± 0.0075 |
| TPTCQDPSLTEV [YJR038C C-terminal 12 aa] | 0.6895 ± 0.0068 |
| TSLGLTRTTIIP [CDC4 C-terminal 12 aa] | 0.6778 ± 0.0043 |
| TSPIGEFQSIKH [SPT21 C-terminal 12 aa] | 0.674 ± 0.037 |
| TSQEINDRLEAL [PRE8 C-terminal 12 aa] | 0.643 ± 0.0082 |
| TSSQKIYHTSNK [IPK1 C-terminal 12 aa] | 0.672 ± 0.049 |
| TVDYIASNPDAN [ACP1 C-terminal 12 aa] | 0.736 ± 0.038 |
| TVGIHSPIDEKC [ATG4 C-terminal 12 aa] | 0.669 ± 0.015 |
| TVVDARIDGRGK [PHB2 C-terminal 12 aa] | 0.708 ± 0.045 |
| TYSEREGNLLNS [RPR2 C-terminal 12 aa] | 0.675 ± 0.0073 |
| VASLPSRYSRYD [ALR1 C-terminal 12 aa] | 0.654 ± 0.013 |
| VDKLAGVRVLPV [GOT1 C-terminal 12 aa] | 0.704 ± 0.019 |
| VEKKKVLSKITL [VPH2 C-terminal 12 aa] | 0.691 ± 0.048 |
| VESTRETGGCNC [YPT53 C-terminal 12 aa] | 0.65486 ± 0.00056 |
| VFQRAIEKALGE [STR2 C-terminal 12 aa] | 0.716 ± 0.013 |
| VFSKKEPFPHSK [YJR084W C-terminal 12 aa] | 0.771 ± 0.059 |

| Sequence | protein stability index |
| --- | --- |
| VGITSVGTRGNY [YNL140C C-terminal 12 aa] | 0.717 ± 0.097 |
| VGNYFMAIQRLN [COQ3 C-terminal 12 aa] | 0.16 ± 0.017 |
| VIASDESSHLSY [YHR127W C-terminal 12 aa] | 0.699 ± 0.024 |
| VKDLYKRLTIQA [GPI1 C-terminal 12 aa] | 0.0975 ± 0.0091 |
| VKHAEYAINAFF [YPR147C C-terminal 12 aa] | 0.682 ± 0.026 |
| VKHQPKTYRTKK [SGO1 C-terminal 12 aa] | 0.677 ± 0.053 |
| VKRNKYPPRPVH [REF2 C-terminal 12 aa] | 0.74 ± 0.0081 |
| VKSDSGSSCTIM [RHO3 C-terminal 12 aa] | 0.711 ± 0.023 |
| VKTKFFPLSSSI [YDR199W C-terminal 12 aa] | 0.716 ± 0.026 |
| VKWKVLCDLGWT [YIL047C-A C-terminal 12 aa] | 0.708 ± 0.028 |
| VKYSRIIPPDIR [SUM1 C-terminal 12 aa] | 0.69 ± 0.032 |
| VLDEEFRNNNAS [RAD26 C-terminal 12 aa] | 0.69 ± 0.038 |
| VLELSLGFTKLD [MON2 C-terminal 12 aa] | 0.707 ± 0.041 |
| VLFLEDNGFFVF [MET3 C-terminal 12 aa] | 0.775 ± 0.037 |
| VLIKHDHTNTHI [MMT1 C-terminal 12 aa] | 0.701 ± 0.034 |
| VMEEEEQDCKCI [POP8 C-terminal 12 aa] | 0.6519 ± 0.0055 |
| VMGQFLPIFEMD [GSM1 C-terminal 12 aa] | 0.713 ± 0.0046 |
| VRILTKYPKILV [RIM101 C-terminal 12 aa] | 0.5 ± 0.0066 |
| VSGKKFQNVRVL [YPL247C C-terminal 12 aa] | 0.676 ± 0.04 |
| VSLDNLPGVEKK [SUA7 C-terminal 12 aa] | 0.683 ± 0.014 |
| VSLLLNSLALFF [YGL204C C-terminal 12 aa] | 0.6623 ± 0.0058 |
| VSNLEVLEELFP [DPI35 C-terminal 12 aa] | 0.7123 ± 0.0038 |
| VTEAESTASAST [BUD20 C-terminal 12 aa] | 0.6926 ± 0.006 |
| VVEKVSSITNRN [SRF1 C-terminal 12 aa] | 0.669 ± 0.065 |
| VVPAVLFAFLLV [YDL118W C-terminal 12 aa] | 0.4 ± 0.0053 |
| VYENNSYPNSHT [RTT105 C-terminal 12 aa] | 0.678 ± 0.023 |
| WDKQKALERRSV [CNS1 C-terminal 12 aa] | 0.705 ± 0.024 |

| Sequence | protein stability index |
| --- | --- |
| WGSIGQKLRRSA [YOL118C C-terminal 12 aa] | 0.728 ± 0.015 |
| WLRKWLSTFVHQ [YNL018C C-terminal 12 aa] | 0.23 ± 0.022 |
| WRRSKSISTHLR [YLR366W C-terminal 12 aa] | 0.681 ± 0.034 |
| WSPLHAAKRHRI [MRPL51 C-terminal 12 aa] | 0.695 ± 0.02 |
| YAGHRFHDGNKL [ERR1 C-terminal 12 aa] | 0.737 ± 0.043 |
| YAINSGARFDLS [HUL5 C-terminal 12 aa] | 0.687 ± 0.0069 |
| YANAPIEEKPLI [PUN1 C-terminal 12 aa] | 0.683 ± 0.017 |
| YDYLINNKTIFD [POF1 C-terminal 12 aa] | 0.736 ± 0.022 |
| YEEGESIFGSLF [REV7 C-terminal 12 aa] | 0.7145 ± 0.0024 |
| YENEEIQRKRCI [YOR364W C-terminal 12 aa] | 0.658 ± 0.0062 |
| YFSSNISMKTEN [REB1 C-terminal 12 aa] | 0.7373 ± 0.0014 |
| YIKKSAKKGDKN [YHR140W C-terminal 12 aa] | 0.65 ± 0.016 |
| YKAVSVSANSPE [SOG2 C-terminal 12 aa] | 0.673 ± 0.032 |
| YKNNWLILQQQD [KSP1 C-terminal 12 aa] | 0.703 ± 0.082 |
| YNGGGKKLDGFW [YSP3 C-terminal 12 aa] | 0.691 ± 0.025 |
| YNKICSLASRVI [MRPL38 C-terminal 12 aa] | 0.673 ± 0.017 |
| YPVDKEGDIVLE [THP2 C-terminal 12 aa] | 0.662 ± 0.039 |
| YQCSETSTPRNT [GIC1 C-terminal 12 aa] | 0.675 ± 0.012 |
| YRIIDCVIAQLP [NVJ3 C-terminal 12 aa] | 0.655 ± 0.046 |
| YSDGRNYKESSI [CSS3 C-terminal 12 aa] | 0.656 ± 0.045 |
| YSILWSDVYPDS [PDR1 C-terminal 12 aa] | 0.754 ± 0.013 |
| YTINYETNTVEY [NUP133 C-terminal 12 aa] | 0.6455 ± 0.0026 |
| YVKEAQSVVTSL [YIR043C C-terminal 12 aa] | 0.659 ± 0.029 |
| YVSHKGFIVEDM [RPL9B C-terminal 12 aa] | 0.6932 ± 0.006 |
| YWRKQYPDADIP [YCR007C C-terminal 12 aa] | 0.747 ± 0.025 |
